Laboratory results reported in patent US20110263454A1, “Methods of Identifying Functional Characteristics of Promoters, Transcription Modifying Proteins and Transcription Modulating Agents” (Salk Institute for Biological Studies, priority 2008, published 2011).

Key:
mUCP3 promoter = assay: NHR-promoter luciferase screen, mUCP3 promoter; type: cell-based, mouse; conditions: for Normalized Luc. act., normalized to control / Luc. act., normalized to lacZ: mUCP3 promoter reporter; for Normalized Luc. act., normalized to control: HR without or with its ligand, relative to control; for Luc. act., normalized to lacZ: hormone receptor (HR) without or with its ligand; for mUCP3 promoter reporter activity: transcription factor +/- ligand, control = 1.00
Method in brief: (§1)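 CV-1 cells were co-transfected with 50 ng NHR (homodimer or NHR/RXR heterodimer), 100 ng promoter-luciferase construct and 50 ng LacZ. Luciferase was normalized to LacZ and to a no-NHR/no-ligand control.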

mUCP1 promoter = assay: NHR-promoter luciferase screen, mUCP1 promoter; type: cell-based, mouse; conditions: for Luc. act., normalized to lacZ / Normalized Luc. act., normalized to control: mUCP1 promoter reporter, co-transfected HR, with or without its ligand; for Normalized Luc. act., normalized to control: relative to control; for luciferase activity normalized to lacZ activity and to a control, mUCP!: mUCP! promoter-luciferase, CV-1 cells, NHR +/- ligand, control = 1.00
Method in brief: as §1

mLeptin promoter = assay: NHR-promoter luciferase screen, mLeptin promoter; type: cell-based, mouse; conditions: for Luc. act., normalized to lacZ / Normalized Luc. act., normalized to control: Table 7, mLeptin; for Results of assays of transcription factor (+/- ligand) with mLeptin: Table 6d, luciferase activity relative to control (control = 1.00)
Method in brief: as §1

hMDR1 promoter = assay: NHR-promoter luciferase screen, hMDR1 promoter; type: cell-based, human; conditions: for Luc. act., normalized to lacZ / Normalized Luc. act., normalized to control: MDR1 promoter, HR/ligand component; for hMDR1 promoter reporter activity: transcription factor +/- ligand, control = 1.00
Method in brief: as §1

mPer1 promoter = assay: NHR-promoter luciferase screen, mPer1 promoter; type: cell-based, mouse; conditions: for Luc. act., normalized to lacZ / Normalized Luc. act., normalized to control: Per1 promoter reporter, co-transfected HR, with or without its ligand; for Normalized Luc. act., normalized to control: relative to control; for luciferase activity normalized to lacZ activity and to a control, mPer1: mPer1 promoter-luciferase, CV-1 cells, NHR +/- ligand, control = 1.00
Method in brief: as §1

hTNFa promoter = assay: NHR-promoter luciferase screen, hTNFa promoter; type: cell-based, human; conditions: for Luc. act., normalized to lacZ / Normalized Luc. act., normalized to control: TNFa promoter, HR component without or with ligand; for hTNFa promoter reporter activity: transcription factor +/- ligand, control = 1.00
Method in brief: as §1

B1: CTF1: COUP-TF1 (NR2F1), cDNA driver (protein, UniProt P10589 1-423, looked up)
COUP transcription factor 1: MAMVVSSWRDPQDDVAGGNPGGPNPAAQAARGGGGGAGEQQQQAGSGAPHTPQTPGQPGAPATPGTAGDKGQGPPGSGQSQQHIECVVCGDKSSGKHYGQFTCEGCKSFFKRSVRRNLTYTCRANRNCPIDQHHRNQCQYCRLKKCLKVGMRREAVQRGRMPPTQPNPGQYALTNGDPLNGHCYLSGYISLLLRAEPYPTSRYGSQCMQPNNIMGIENICELAARLLFSAVEWARNIPFFPDLQITDQVSLLRLTWSELFVLNAAQCSMPLHVAPLLAAAGLHASPMSADRVVAFMDHIRIFQEQVEKLKALHVDSAEYSCLKAIVLFTSDACGLSDAAHIESLQEKSQCALEEYVRSQYPNQPSRFGKLLLRLPSLRTVSSSVIEQLFFVRLVGKTPIETLIRDMLLSGSSFNWPYMSIQCS
- Normalized Luc. act., normalized to control (mUCP3 promoter): 0.9
- Luc. act., normalized to lacZ (mUCP3 promoter): 0.6
- mUCP3 promoter reporter activity (mUCP3 promoter): 0.93
- Luc. act., normalized to lacZ (mUCP1 promoter): 1.8
- Normalized Luc. act., normalized to control (mUCP1 promoter): 0.4
- luciferase activity normalized to lacZ activity and to a control, mUCP! (mUCP1 promoter): 0.41
- Luc. act., normalized to lacZ (mLeptin promoter): 3.1
- Normalized Luc. act., normalized to control (mLeptin promoter): 1.1
- Results of assays of transcription factor (+/- ligand) with mLeptin (mLeptin promoter): 1.07
- Luc. act., normalized to lacZ (hMDR1 promoter): 0.3
- Normalized Luc. act., normalized to control (hMDR1 promoter): 0.9
- hMDR1 promoter reporter activity (hMDR1 promoter): 0.92
- Luc. act., normalized to lacZ (mPer1 promoter): 283.8
- Normalized Luc. act., normalized to control (mPer1 promoter): 2.0
- luciferase activity normalized to lacZ activity and to a control, mPer1 (mPer1 promoter): 1.97
- Luc. act., normalized to lacZ (hTNFa promoter): 728.5
- Normalized Luc. act., normalized to control (hTNFa promoter): 0.7
- hTNFa promoter reporter activity (hTNFa promoter): 0.74

B2: ERR3: Estrogen Related Receptor γ (NR3B3, ERRg), cDNA driver (protein, UniProt P62508 1-458, looked up)
Estrogen-related receptor …: MDSVELCLPESFSLHYEEELLCRMSNKDRHIDSSCSSFIKTEPSSPASLTDSVNHHSPGGSSDASGSYSSTMNGHQNGLDSPPLYPSAPILGGSGPVRKLYDDCSSTIVEDPQTKCEYMLNSMPKRLCLVCGDIASGYHYGVASCEACKAFFKRTIQGNIEYSCPATNECEITKRRRKSCQACRFMKCLKVGMLKEGVRLDRVRGGRQKYKRRIDAENSPYLNPQLVQPAKKPYNKIVSHLLVAEPEKIYAMPDPTVPDSDIKALTTLCDLADRELVVIIGWAKHIPGFSTLSLADQMSLLQSAWMEILILGVVYRSLSFEDELVYADDYIMDEDQSKLAGLLDLNNAILQLVKKYKSMKLEKEEFVTLKAIALANSDSMHIEDVEAVQKLQDVLHEALQDYEAGQHMEDPRRAGKMLMTLPLLRQTSTKAVQHFYNIKLEGKVPMHKLFLEMLEAKV
- Normalized Luc. act., normalized to control (mUCP3 promoter): 3.1
- Luc. act., normalized to lacZ (mUCP3 promoter): 2.1
- mUCP3 promoter reporter activity (mUCP3 promoter): 3.06
- Luc. act., normalized to lacZ (mUCP1 promoter): 26.5
- Normalized Luc. act., normalized to control (mUCP1 promoter): 6.0
- luciferase activity normalized to lacZ activity and to a control, mUCP! (mUCP1 promoter): 5.98
- Luc. act., normalized to lacZ (mLeptin promoter): 2.4
- Normalized Luc. act., normalized to control (mLeptin promoter): 0.8
- Results of assays of transcription factor (+/- ligand) with mLeptin (mLeptin promoter): 0.80
- Luc. act., normalized to lacZ (hMDR1 promoter): 0.2
- Normalized Luc. act., normalized to control (hMDR1 promoter): 0.8
- hMDR1 promoter reporter activity (hMDR1 promoter): 0.79
- Luc. act., normalized to lacZ (mPer1 promoter): 226.8
- Normalized Luc. act., normalized to control (mPer1 promoter): 1.6
- luciferase activity normalized to lacZ activity and to a control, mPer1 (mPer1 promoter): 1.58
- Luc. act., normalized to lacZ (hTNFa promoter): 2705.8
- Normalized Luc. act., normalized to control (hTNFa promoter): 2.8
- hTNFa promoter reporter activity (hTNFa promoter): 2.75

B3: CTF2: COUP-TF2 (NR2F2), cDNA driver (protein, UniProt P24468 1-414, looked up)
COUP transcription factor 2: MAMVVSTWRDPQDEVPGSQGSQASQAPPVPGPPPGAPHTPQTPGQGGPASTPAQTAAGGQGGPGGPGSDKQQQQQHIECVVCGDKSSGKHYGQFTCEGCKSFFKRSVRRNLSYTCRANRNCPIDQHHRNQCQYCRLKKCLKVGMRREAVQRGRMPPTQPTHGQFALTNGDPLNCHSYLSGYISLLLRAEPYPTSRFGSQCMQPNNIMGIENICELAARMLFSAVEWARNIPFFPDLQITDQVALLRLTWSELFVLNAAQCSMPLHVAPLLAAAGLHASPMSADRVVAFMDHIRIFQEQVEKLKALHVDSAEYSCLKAIVLFTSDACGLSDVAHVESLQEKSQCALEEYVRSQYPNQPTRFGKLLLRLPSLRTVSSSVIEQLFFVRLVGKTPIETLIRDMLLSGSSFNWPYMAIQ
- Normalized Luc. act., normalized to control (mUCP3 promoter): 0.9
- Luc. act., normalized to lacZ (mUCP3 promoter): 0.6
- mUCP3 promoter reporter activity (mUCP3 promoter): 0.91
- Luc. act., normalized to lacZ (mUCP1 promoter): 1.9
- Normalized Luc. act., normalized to control (mUCP1 promoter): 0.4
- luciferase activity normalized to lacZ activity and to a control, mUCP! (mUCP1 promoter): 0.43
- Luc. act., normalized to lacZ (mLeptin promoter): 3.8
- Normalized Luc. act., normalized to control (mLeptin promoter): 1.3
- Results of assays of transcription factor (+/- ligand) with mLeptin (mLeptin promoter): 1.31
- Luc. act., normalized to lacZ (hMDR1 promoter): 0.3
- Normalized Luc. act., normalized to control (hMDR1 promoter): 1.0
- hMDR1 promoter reporter activity (hMDR1 promoter): 1.01
- Luc. act., normalized to lacZ (mPer1 promoter): 346.6
- Normalized Luc. act., normalized to control (mPer1 promoter): 2.4
- luciferase activity normalized to lacZ activity and to a control, mPer1 (mPer1 promoter): 2.41
- Luc. act., normalized to lacZ (hTNFa promoter): 1014.3
- Normalized Luc. act., normalized to control (hTNFa promoter): 1.0
- hTNFa promoter reporter activity (hTNFa promoter): 1.03
